Source: PMC9482650, “Quantitative fragmentomics allow affinity mapping of interactomes” (Nature Communications, 2022)

T1: RAPGEF6, Q8TEU7
T1 sequence (Q8TEU7 525-625, limits assumed, looked up): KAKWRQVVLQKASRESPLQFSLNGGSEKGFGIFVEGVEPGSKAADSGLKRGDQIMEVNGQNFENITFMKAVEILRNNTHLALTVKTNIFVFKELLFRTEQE

T2: LNX2_2, Q8N448
T2 sequence (Q8N448 334-432, limits assumed, looked up): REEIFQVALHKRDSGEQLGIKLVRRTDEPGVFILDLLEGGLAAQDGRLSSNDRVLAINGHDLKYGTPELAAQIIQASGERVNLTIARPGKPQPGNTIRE

T3: PTPN13_1, Q12923
T3 sequence (Q12923 1088-1188, limits assumed, looked up): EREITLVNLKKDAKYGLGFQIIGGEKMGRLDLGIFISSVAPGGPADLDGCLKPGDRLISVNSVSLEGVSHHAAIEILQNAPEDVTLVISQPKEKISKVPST

T4: TX1BP3, O14907
T4 sequence (O14907 10-122, limits assumed, looked up): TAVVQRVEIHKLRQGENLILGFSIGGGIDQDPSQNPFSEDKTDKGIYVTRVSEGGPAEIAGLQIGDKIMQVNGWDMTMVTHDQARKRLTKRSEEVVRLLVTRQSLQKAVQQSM

T5: DFNB31_2, Q9P202
T5 sequence (Q9P202 274-371, limits assumed, looked up): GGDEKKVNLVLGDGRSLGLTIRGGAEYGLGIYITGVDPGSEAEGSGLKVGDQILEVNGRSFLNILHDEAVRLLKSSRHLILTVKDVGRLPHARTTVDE

T6: CARD11, Q9BXL7
T6 sequence (Q9BXL7 662-765, limits assumed, looked up): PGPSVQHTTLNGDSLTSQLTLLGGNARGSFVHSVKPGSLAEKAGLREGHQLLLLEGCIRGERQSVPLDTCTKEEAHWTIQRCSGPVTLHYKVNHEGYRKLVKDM

T7: MPP7, Q5T2T1
T7 sequence (Q5T2T1 134-230, limits assumed, looked up): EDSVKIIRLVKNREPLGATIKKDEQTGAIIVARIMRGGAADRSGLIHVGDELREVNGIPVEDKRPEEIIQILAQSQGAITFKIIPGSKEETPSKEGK

T8: DLG3_2, Q92796
T8 sequence (Q92796 221-321, limits assumed, looked up): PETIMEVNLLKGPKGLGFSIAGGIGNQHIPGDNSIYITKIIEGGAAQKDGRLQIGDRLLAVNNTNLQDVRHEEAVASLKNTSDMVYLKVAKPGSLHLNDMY

T9: GRIP1_5, Q9Y3R0
T9 sequence (Q9Y3R0 568-668, limits assumed, looked up): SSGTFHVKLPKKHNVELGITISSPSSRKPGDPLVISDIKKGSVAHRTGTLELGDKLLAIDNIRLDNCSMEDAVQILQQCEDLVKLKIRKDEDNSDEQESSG

T10: SYNJ2BP, P57105
T10 sequence (P57105 8-110, limits assumed, looked up): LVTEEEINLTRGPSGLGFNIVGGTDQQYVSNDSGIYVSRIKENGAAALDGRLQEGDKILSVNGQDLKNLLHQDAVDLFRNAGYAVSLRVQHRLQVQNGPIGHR

T11: GRIP1_2, Q9Y3R0
T11 sequence (Q9Y3R0 145-248, limits assumed, looked up): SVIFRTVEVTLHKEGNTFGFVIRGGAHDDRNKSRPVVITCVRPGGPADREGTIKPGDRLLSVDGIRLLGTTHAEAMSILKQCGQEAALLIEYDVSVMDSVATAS


Legend:
Experiment in all cases: holdup assay
Set-up in all cases: key: below the threshold = too weak to quantify, mostly under pKd 3.1 to 4
[1] = target: ARHGEF12, Q9NZN5-2
[2] = target: T1, RAPGEF6, Q8TEU7
[3] = target: CASK, O14936
[4] = target: T2, LNX2_2, Q8N448
[5] = target: T3, PTPN13_1, Q12923
[6] = target: T4, TX1BP3, O14907
[7] = target: MAGI3_2, Q5TCQ9; settings: plain residues with an end cap or a label only (N-terminal biotin on a linker: ttds)
[8] = target: DLG4_2, P78352
[9] = target: Inadl_5, Q8NI35; settings: plain residues with an end cap or a label only (N-terminal biotin on a linker: ttds)
[10] = target: TJP1_3, Q07157; settings: plain residues with an end cap or a label only (N-terminal biotin on a linker: ttds)
[11] = target: MAGI1_1, Q96QZ7; settings: plain residues with an end cap or a label only (N-terminal biotin on a linker: ttds)
[12] = target: Inadl_1, Q8NI35; settings: plain residues with an end cap or a label only (N-terminal biotin on a linker: ttds)
[13] = target: MAGI2_4, Q86UL8
[14] = target: PARD3_3, Q8TEW0
[15] = target: T5, DFNB31_2, Q9P202; settings: plain residues with an end cap or a label only (N-terminal biotin on a linker: ttds)
[16] = target: DLG1_1, Q12959; settings: plain residues with an end cap or a label only (N-terminal biotin on a linker: ttds)
[17] = target: FRMPD2_3, Q68DX3; settings: plain residues with an end cap or a label only (N-terminal biotin on a linker: ttds)
[18] = target: T6, CARD11, Q9BXL7; settings: plain residues with an end cap or a label only (N-terminal biotin on a linker: ttds)
[19] = target: T7, MPP7, Q5T2T1; settings: plain residues with an end cap or a label only (N-terminal biotin on a linker: ttds)
[20] = target: T8, DLG3_2, Q92796; settings: plain residues with an end cap or a label only (N-terminal biotin on a linker: ttds)
[21] = target: SCRIB_2, Q14160; settings: plain residues with an end cap or a label only (N-terminal biotin on a linker: ttds)
[22] = target: T9, GRIP1_5, Q9Y3R0
[23] = target: GRID2IP_1, A4D2P6; settings: plain residues with an end cap or a label only (N-terminal biotin on a linker: ttds)
[24] = target: T10, SYNJ2BP, P57105; settings: plain residues with an end cap or a label only (N-terminal biotin on a linker: ttds)
[25] = target: T11, GRIP1_2, Q9Y3R0; settings: plain residues with an end cap or a label only (N-terminal biotin on a linker: ttds)
[26] = target: MAGI2_2, Q86UL8; settings: plain residues with an end cap or a label only (N-terminal biotin on a linker: ttds)
[27] = plain residues with an end cap or a label only (N-terminal biotin on a linker: ado-ado)
[28] = plain residues with an end cap or a label only (N-terminal biotin on a linker: ttds)

Sequence of PARD3_3, Q8TEW0 (Q8TEW0 582-685): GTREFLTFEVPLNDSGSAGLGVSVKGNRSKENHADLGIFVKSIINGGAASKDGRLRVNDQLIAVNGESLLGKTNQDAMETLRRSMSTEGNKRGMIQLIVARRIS
Sequence of MAGI2_4, Q86UL8 (Q86UL8 772-865): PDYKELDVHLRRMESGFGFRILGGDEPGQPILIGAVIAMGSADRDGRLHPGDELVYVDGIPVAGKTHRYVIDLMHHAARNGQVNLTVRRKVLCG
Sequence of ARHGEF12, Q9NZN5-2 (Q9NZN5 other isoform, or with tags, fused parts or gaps): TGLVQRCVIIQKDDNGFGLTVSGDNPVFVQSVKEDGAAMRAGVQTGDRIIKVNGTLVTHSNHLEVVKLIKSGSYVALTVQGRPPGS
Sequence of CASK, O14936 (O14936 487-570): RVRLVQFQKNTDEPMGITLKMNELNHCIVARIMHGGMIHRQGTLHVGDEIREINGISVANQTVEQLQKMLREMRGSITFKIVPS
Sequence of DLG4_2, P78352 (P78352 155-259): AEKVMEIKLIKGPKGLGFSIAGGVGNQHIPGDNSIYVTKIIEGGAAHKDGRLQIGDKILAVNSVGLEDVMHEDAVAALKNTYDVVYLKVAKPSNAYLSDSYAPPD
Sequence of MAGI2_2, Q86UL8 (Q86UL8 410-522): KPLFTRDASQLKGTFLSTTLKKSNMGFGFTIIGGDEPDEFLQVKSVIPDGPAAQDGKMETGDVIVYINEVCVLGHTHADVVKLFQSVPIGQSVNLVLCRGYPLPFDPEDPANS
Sequence of Inadl_5, Q8NI35 (Q8NI35 673-780): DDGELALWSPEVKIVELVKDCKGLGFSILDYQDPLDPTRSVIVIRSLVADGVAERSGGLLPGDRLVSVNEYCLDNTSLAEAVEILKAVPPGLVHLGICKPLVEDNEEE
Sequence of FRMPD2_3, Q68DX3 (Q68DX3 1073-1166): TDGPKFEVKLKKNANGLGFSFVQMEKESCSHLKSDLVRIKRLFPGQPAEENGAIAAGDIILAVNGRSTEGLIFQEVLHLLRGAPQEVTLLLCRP
Sequence of GRID2IP_1, A4D2P6 (A4D2P6 1-87): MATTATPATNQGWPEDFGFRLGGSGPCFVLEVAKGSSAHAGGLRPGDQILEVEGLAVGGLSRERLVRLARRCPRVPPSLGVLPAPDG
Sequence of MAGI1_1, Q96QZ7 (Q96QZ7 1-106): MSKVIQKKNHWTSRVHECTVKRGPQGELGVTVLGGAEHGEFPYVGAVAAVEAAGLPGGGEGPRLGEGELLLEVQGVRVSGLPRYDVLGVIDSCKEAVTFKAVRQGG
Sequence of Inadl_1, Q8NI35 (Q8NI35 113-229): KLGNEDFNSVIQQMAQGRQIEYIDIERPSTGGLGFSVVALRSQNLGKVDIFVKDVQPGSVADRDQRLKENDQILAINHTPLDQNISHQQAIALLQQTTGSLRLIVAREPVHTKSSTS
Sequence of SCRIB_2, Q14160 (Q14160 857-960): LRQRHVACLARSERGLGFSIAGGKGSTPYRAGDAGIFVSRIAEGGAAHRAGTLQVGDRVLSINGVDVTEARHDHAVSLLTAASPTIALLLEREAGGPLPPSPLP
Sequence of MAGI3_2, Q5TCQ9 (Q5TCQ9 398-503): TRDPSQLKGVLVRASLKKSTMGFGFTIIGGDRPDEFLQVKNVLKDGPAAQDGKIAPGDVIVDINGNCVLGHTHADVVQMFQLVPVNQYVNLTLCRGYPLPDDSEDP
Sequence of TJP1_3, Q07157 (Q07157 416-512): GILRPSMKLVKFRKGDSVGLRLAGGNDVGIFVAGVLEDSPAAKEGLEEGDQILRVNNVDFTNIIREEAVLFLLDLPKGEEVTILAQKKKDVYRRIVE

| Binder | pKd [7] | pKd [8, 28] | pKd [9] | pKd [10] | pKd [11] | pKd [12] | pKd [13, 28] | pKd [1, 28] | pKd [14, 28] | pKd [2, 28] | pKd [15] | pKd [3, 28] | pKd [16] | pKd [4, 28] | pKd [17] | pKd [18] | pKd [19] | pKd [20] | pKd [5, 28] | pKd [21] | other results |
| --- | --- | --- | --- | --- | --- | --- | --- | --- | --- | --- | --- | --- | --- | --- | --- | --- | --- | --- | --- | --- | --- |
| KRPEMTSSSV [MUC3B, MUC3A, Q02505;Q9H195] | – | – | – | – | – | – | – | – | – | – | – | – | – | – | – | – | – | – | – | – | pKd [1, 27]: 4; pKd [2, 27]: below the threshold; pKd [3, 27]: below the threshold; pKd [4, 27]: below the threshold; pKd [5, 27]: below the threshold; pKd [6, 27]: 4.5 |
| ERKLSSESQV [LRP4, O75096] | 5.17 | 4.69 | below the threshold | below the threshold | below the threshold | below the threshold | 3.83 | 3.7 | below the threshold | below the threshold | below the threshold | below the threshold | 3.82 | below the threshold | below the threshold | below the threshold | below the threshold | 4.6 | below the threshold | 3.66 | pKd [6, 28]: 4.27; pKd [22, 28]: below the threshold; pKd [23]: below the threshold; pKd [24]: 4.78; pKd [25]: 3.7; pKd [26]: 4.79 |
| KSRVAFFEEL [NF2, P35240] | – | – | – | – | – | – | – | – | – | – | – | – | – | – | – | – | – | – | – | – | pKd [8, 27]: 3.78; pKd [13, 27]: 3.83; pKd [14, 27]: 3.72; pKd [22, 27]: 3.62 |
| SVWLRKETRV [CYSLTR2, Q9NS75] | 5.75 | 5.38 | 3.62 | below the threshold | below the threshold | below the threshold | 4.06 | 4.23 | 3.46 | 3.44 | 3.73 | below the threshold | 5.14 | 3.77 | 3.57 | below the threshold | below the threshold | 5.32 | 3.43 | 4.42 | pKd [6, 28]: 4.75; pKd [22, 28]: below the threshold; pKd [23]: below the threshold; pKd [24]: 5.38; pKd [25]: below the threshold; pKd [26]: 5.68 |
